From patent US8445655, “Functional nucleic acid ligands to fluorescent proteins” (Cornell Research Foundation, Inc.) come the findings set out here.

B1: AP6 (ssRNA)
RNA: GGGAGCACGAUUCCAUUGGAUGCCACCGCGACUACGGUUAGUAGGCAUUCUGAGUCGUGGCGAAUUGGGUGGGGAAAGUCCUGAAAAGAGGGCCACCACAGAGGCUCAAACUGGACGUUAAUGACGUUUCGGUUCAGUACAAGCUUCUGGACUCGGU
B2: AP2 (ssRNA)
RNA: GGGAGCACGAUUCCAUGCAAUUGUCGAGUUGUUAGCAGCAGCUUGCAUAUUGAGUCGUGGCGAAUUGGGUGGGGAAAGUCCUAAAAAGAGGGCCACCACAGAGGUUUGUACCCAUACUACAAGCUUCUGGACUCGGU
B3: AP4 (ssRNA)
RNA: GGGAGCACGAUUCCAUGAUUCUCGUAUCAAGGAAGGGUUAUGAGAUUUAGGUAAACGUGGCGAAUUGGGUGGGGAAAGUCCUAAAAAGAGGGCCACCACAGAGGCUUGUAAUCGAUGUUACUAUAGAGGGACACGACUACAAGCUUCUGGACUCGGU

For this series, the target named is GFP (wild-type green fluorescent protein) (Aequorea victoria, UniProt P42212 P42212:1-238). Put plainly: filter; higher affinity than G16. Conditions: tags: His-tag (His-tagged GFP used on Ni beads in selection).
Consider B1, for which the binding result is on record as “binds”.
As for B2, the binding result is reported as “binds”.
With B3, the binding result was “binds”.
